Assay results published in US20070059799A1.
Like-named read-outs stand apart in the source and are kept apart here.

Assays:
[1] = target: HLA-A*3101 (human); assay: competition with 125I-labelled standard peptide on purified HLA, gel filtration
[2] = target: HLA-A*3301 (human); assay: as above
[3] = target: HLA-A*1101 (human); assay: as above
[4] = target: HLA-A*6801 (human); assay: as above; settings: remark: other sources report otherwise
[5] = target: HLA-A*3101 (human); assay: inhibition of 125I-labelled standard peptide binding to purified HLA
[6] = target: HLA-A*3301 (human); assay: as above
[7] = target: HLA-A*1101 (human); assay: as above
[8] = target: HLA-A*0201 (Human); assay: competition with 125I-labelled standard peptide for purified HLA, gel filtration
[9] = target: HLA-A*03 (human); assay: competition with 125I-labelled probe peptide for purified HLA, gel filtration
[10] = target: HLA-A*0301 (human)
[11] = target: HLA-A*3101 (human); assay: competition with 125I-labelled probe peptide for purified HLA, gel filtration
[12] = target: HLA-A*0301 (human); remark: listed apart in the source
[13] = target: HLA-A*0301 (human); assay: competition with 125I-labelled standard peptide on purified HLA, gel filtration
[14] = target: HLA-A*0301 (human); assay: competition with 125I-labelled probe peptide for purified HLA, gel filtration
[15] = target: HLA-B*0702 (human); assay: competition with 125I-labelled standard peptide for purified HLA, gel filtration
[16] = target: HLA-B*5301 (human); assay: as above
[17] = target: HLA-B*0702 (human)
[18] = target: HLA-B*5401 (human); assay: competition with 125I-labelled probe peptide for purified HLA, gel filtration; settings: remark: other sources report otherwise
[19] = remark: other sources report otherwise

B1: HBV POL 520 8-mer peptide SAICSVVR (SEQ ID NO: 652) (peptide)
peptide: SAICSVVR
modifications: not checked
binding affinity ratio (IC50 of standard peptide / IC50 of test peptide) [1, 19]: 0.028 | binding affinity ratio (IC50 of standard peptide / IC50 of test peptide) [2, 19]: 0.0081 | binding affinity ratio (IC50 of standard peptide / IC50 of test peptide) [3, 19]: 0.0071 | binding affinity ratio (IC50 of standard peptide / IC50 of test peptide) [4]: 0.069

B2: HBV POL 98 peptide PLTVNEKR (peptide)
peptide: PLTVNEKR
modifications: not checked
binding affinity ratio (IC50 of standard peptide / IC50 of test peptide) [5]: -0.0009 | binding affinity ratio (IC50 of standard peptide / IC50 of test peptide) [6]: -0.0009 | binding affinity ratio (IC50 of standard peptide / IC50 of test peptide) [7]: -0.0002

B3: HBV ENV 348 peptide GLSPTVWL (peptide)
peptide: GLSPTVWL
modifications: not checked
binding affinity ratio (IC50 of standard peptide / IC50 of test peptide) [8]: 0.0036

B4: peptide 20.0131 (HBV pol 524, …) (peptide)
peptide: SVVRRAFPH
modifications: not checked
IC50 [9, 19]: 100 nM

B5: peptide 1147.16 (HBV pol 149, …) (peptide)
peptide: HTLWKAGILYK
modifications: not checked
IC50 [9]: 20 nM

B6: HBV POL 716 … (peptide)
peptide: TAELLAACFAR
modifications: not checked
binding affinity ratio (IC50 of standard peptide / IC50 of test peptide) [10, 19]: 0.0006

B7: peptide 26.0539 (HBV POL 376, …) (peptide)
peptide: RLVVDFSQFSR
modifications: not checked
IC50 [11]: 7 nM | IC50 [9]: 39 nM

B8: YSLNFMGY (HBV POL 580) (peptide)
peptide: YSLNFMGY
modifications: not checked
binding affinity ratio (IC50 of standard peptide / IC50 of test peptide) [12]: -0.0002

B9: HBV POL 98 peptide … (peptide)
peptide: PLTVNEKRR
modifications: not checked
binding affinity ratio (IC50 of standard peptide / IC50 of test peptide) [6]: 0.0027 | binding affinity ratio (IC50 of standard peptide / IC50 of test peptide) [7]: 0.0005

B10: HBV POL 736 … (peptide)
peptide: TDNSVVLSRK
modifications: not checked
binding affinity ratio (IC50 of standard peptide / IC50 of test peptide) [10]: 0.0006

B11: HBV POL 519 10-mer peptide … (SEQ ID NO: 668) (peptide)
peptide: TSAICSVVRR
modifications: not checked
binding affinity ratio (IC50 of standard peptide / IC50 of test peptide) [13]: 0.0018

B12: peptide 20.0130 (HBV pol 655, …) (peptide)
peptide: AFTFSPTYK
modifications: not checked
IC50 [11, 19]: 3100 nM | IC50 [9, 19]: 42 nM

B13: HBV POL 2 peptide … (peptide)
peptide: PLSYQHFRK
modifications: not checked
binding affinity ratio (IC50 of standard peptide / IC50 of test peptide) [5]: 0.0006 | binding affinity ratio (IC50 of standard peptide / IC50 of test peptide) [7]: 0.0031

B14: peptide 26.0023 (HBV X NUC FUS 296, VSFGVWIR) (peptide)
peptide: VSFGVWIR
modifications: not checked
IC50 [9, 19]: 2750 nM

B15: HBV POL 771 11-mer peptide … (SEQ ID NO: 654) (peptide)
peptide: SALNPADDPSR
modifications: not checked
binding affinity ratio (IC50 of standard peptide / IC50 of test peptide) [1]: -0.0012 | binding affinity ratio (IC50 of standard peptide / IC50 of test peptide) [2]: -0.0023 | binding affinity ratio (IC50 of standard peptide / IC50 of test peptide) [3]: -0.0003 | binding affinity ratio (IC50 of standard peptide / IC50 of test peptide) [13]: -0.0004

B16: HBV X 11 peptide … (peptide)
peptide: PARDVLCLR
modifications: not checked
binding affinity ratio (IC50 of standard peptide / IC50 of test peptide) [5]: 0.01 | binding affinity ratio (IC50 of standard peptide / IC50 of test peptide) [6]: 0.018

B17: HBV NUC 123 peptide … (peptide)
peptide: GVWIRTPPA
modifications: not checked
binding affinity ratio (IC50 of standard peptide / IC50 of test peptide) [8]: 0.003

B18: HBV POL 569 peptide … (peptide)
peptide: HLNPNKTKR
modifications: not checked
binding affinity ratio (IC50 of standard peptide / IC50 of test peptide) [14]: 0.0025

B19: HBV ENV 9 peptide […] (peptide)
peptide: NPLGFFPDHQL
modifications: not checked
binding affinity ratio (IC50 of standard peptide / IC50 of test peptide) [15]: 0.0012 | binding affinity ratio (IC50 of standard peptide / IC50 of test peptide) [16]: 0.0028

B20: WIRTPPAY (HBV NUC 125) (peptide)
peptide: WIRTPPAY
modifications: not checked
binding affinity ratio (IC50 of standard peptide / IC50 of test peptide) [12]: -0.0002

B21: HBV NUC 129 peptide … (peptide)
peptide: PPAYRPPNAPI
modifications: not checked
binding affinity ratio (IC50 of standard peptide / IC50 of test peptide) [16]: -0.0003

B22: HBV X 20 peptide … (peptide)
peptide: PVGAESRGR
modifications: not checked
binding affinity ratio (IC50 of standard peptide / IC50 of test peptide) [6]: 0.0043 | binding affinity ratio (IC50 of standard peptide / IC50 of test peptide) [7]: 0.0005

B23: HBV POL 50 peptide … (peptide)
peptide: IPWTHKVGNF
modifications: not checked
binding affinity ratio (ratio to standard peptide) [17]: 0.0013

B24: HBV POL 723 peptide 16.0181 (…) (peptide)
peptide: LPIHTAELLA
modifications: not checked
IC50 [18]: 30 nM

B25: WLQFRNSK (HBV POL 314) (peptide)
peptide: WLQFRNSK
modifications: not checked
binding affinity ratio (IC50 of standard peptide / IC50 of test peptide) [12]: -0.0002

B26: HBV POL 150 … (peptide)
peptide: TLWKAGILYKR
modifications: not checked
binding affinity ratio (IC50 of standard peptide / IC50 of test peptide) [10, 19]: 0.0082

B27: … (HBV NUC 118) (peptide)
peptide: YLVSFGVWIR
modifications: not checked
binding affinity ratio (IC50 of standard peptide / IC50 of test peptide) [12]: 0.0005

B28: HBV POL 716 11-mer peptide … (SEQ ID NO: 661) (peptide)
peptide: TAELLAACFAR
modifications: not checked
binding affinity ratio (IC50 of standard peptide / IC50 of test peptide) [1, 19]: 0.0066 | binding affinity ratio (IC50 of standard peptide / IC50 of test peptide) [2, 19]: 0.16 | binding affinity ratio (IC50 of standard peptide / IC50 of test peptide) [3, 19]: 0.0023 | binding affinity ratio (IC50 of standard peptide / IC50 of test peptide) [13, 19]: 0.0006 | binding affinity ratio (IC50 of standard peptide / IC50 of test peptide) [4]: 0.059

B29: HBV POL 150 11-mer peptide … (SEQ ID NO: 666) (peptide)
peptide: TLWKAGILYKR
modifications: not checked
binding affinity ratio (IC50 of standard peptide / IC50 of test peptide) [1, 19]: 0.1 | binding affinity ratio (IC50 of standard peptide / IC50 of test peptide) [2, 19]: 0.11 | binding affinity ratio (IC50 of standard peptide / IC50 of test peptide) [3, 19]: 0.0095 | binding affinity ratio (IC50 of standard peptide / IC50 of test peptide) [13, 19]: 0.0082 | binding affinity ratio (IC50 of standard peptide / IC50 of test peptide) [4]: 0.064

B30: HBV POL 627 peptide … (peptide)
peptide: GLLGFAAPFT
modifications: not checked
binding affinity ratio (IC50 of standard peptide / IC50 of test peptide) [8]: 0.0049

B31: … (HBV NUC 26) (peptide)
peptide: WLWGMDIDPYK
modifications: not checked
binding affinity ratio (IC50 of standard peptide / IC50 of test peptide) [12, 19]: 0.003

B32: HBV NUC 171 9-mer peptide … (SEQ ID NO: 662) (peptide)
peptide: TLPETTVVR
modifications: not checked
binding affinity ratio (IC50 of standard peptide / IC50 of test peptide) [1, 19]: 0.0009 | binding affinity ratio (IC50 of standard peptide / IC50 of test peptide) [4]: 0.018

B33: peptide 26.0535 (HBV X NUC FUS 299, …) (peptide)
peptide: GVWIRTPPAYR
modifications: not checked
IC50 [11]: 3 nM | IC50 [9]: 58 nM

B34: HBV X 65 8-mer peptide SAGPCALR (SEQ ID NO: 651) (peptide)
peptide: SAGPCALR
modifications: not checked
binding affinity ratio (IC50 of standard peptide / IC50 of test peptide) [1, 19]: 0.0029 | binding affinity ratio (IC50 of standard peptide / IC50 of test peptide) [3, 19]: 0.002 | binding affinity ratio (IC50 of standard peptide / IC50 of test peptide) [13, 19]: -0.0002 | binding affinity ratio (IC50 of standard peptide / IC50 of test peptide) [4]: 0.036

B35: HBV POL 2 peptide PLSYQHFR (peptide)
peptide: PLSYQHFR
modifications: not checked
binding affinity ratio (IC50 of standard peptide / IC50 of test peptide) [5]: -0.0009 | binding affinity ratio (IC50 of standard peptide / IC50 of test peptide) [6]: -0.0009

B36: HBV NUC 188 8-mer peptide ATPSPRRR (SEQ ID NO: 648) (peptide)
peptide: RTPSPRRR
modifications: not checked
binding affinity ratio (IC50 of standard peptide / IC50 of test peptide) [1]: 0.0033 | binding affinity ratio (IC50 of standard peptide / IC50 of test peptide) [2]: 0.0014 | binding affinity ratio (IC50 of standard peptide / IC50 of test peptide) [3]: -0.0002 | binding affinity ratio (IC50 of standard peptide / IC50 of test peptide) [13]: -0.0002

B37: HBV NUC 30 peptide … (peptide)
peptide: LLDTASALYR
modifications: not checked
binding affinity ratio (IC50 of standard peptide / IC50 of test peptide) [14]: 0.005

B38: HBV POL 519 9-mer peptide … (SEQ ID NO: 667) (peptide)
peptide: TSAICSVVR
modifications: not checked
binding affinity ratio (IC50 of standard peptide / IC50 of test peptide) [1, 19]: 0.06 | binding affinity ratio (IC50 of standard peptide / IC50 of test peptide) [2, 19]: 0.02 | binding affinity ratio (IC50 of standard peptide / IC50 of test peptide) [13, 19]: 0.0005 | binding affinity ratio (IC50 of standard peptide / IC50 of test peptide) [4]: 0.082

B39: HBV POL 519 … (peptide)
peptide: TSAICSVVR
modifications: not checked
binding affinity ratio (IC50 of standard peptide / IC50 of test peptide) [10, 19]: 0.0005

B40: HBV ENV 348 peptide … (peptide)
peptide: GLSPTVWLSVI
modifications: not checked
binding affinity ratio (IC50 of standard peptide / IC50 of test peptide) [8]: 0.0036

B41: HBV POL 20 peptide PLEEELPR (peptide)
peptide: PLEEELPR
modifications: not checked
binding affinity ratio (IC50 of standard peptide / IC50 of test peptide) [5]: -0.0009 | binding affinity ratio (IC50 of standard peptide / IC50 of test peptide) [6]: -0.0009 | binding affinity ratio (IC50 of standard peptide / IC50 of test peptide) [7]: -0.0002

B42: HBV POL 398 peptide … (peptide)
peptide: VPNLQSLTNL
modifications: not checked
binding affinity ratio (IC50 of standard peptide / IC50 of test peptide) [15]: 0.0008
